This assay deals with coatomer (COPI heptamer) (Mus musculus) (UniProt Q8CIE6). Description: cryo-EM structure; cryo-electron tomography and subtomogram averaging of COPI-coated vesicles and buds from an in vitro budding reaction: liposomes with 3 mol % PI4P (0.23 mg/ml), GTPγS 0.5 mM, COPI 1.36 μM, Arf1 20 μM, ARNO 4 μM, GOLPH3 9 μM; 50 mM Hepes pH 7.2, 125 mM KOAc, 30 min at 37°C; 7.5 Å map, model by rigid body fitting of domains from AlphaFold 3 predictions.

Sequence of Arf1 (P84077 whole entry, the tested form may be a part): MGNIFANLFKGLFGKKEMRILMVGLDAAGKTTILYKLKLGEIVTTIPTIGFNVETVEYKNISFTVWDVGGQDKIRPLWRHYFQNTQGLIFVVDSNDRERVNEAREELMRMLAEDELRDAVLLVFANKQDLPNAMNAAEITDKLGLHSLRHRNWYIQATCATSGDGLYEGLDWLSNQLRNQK

Turning to “Arf1 (from UniProt P84077 1-181) (natural protein)”, the stoichiometry N (per COPI heptamer) is 2.

Source of the values: article PMC12494035.
